Measured values from patent US20220048967A1 (published 2022).
Numbered stars: 1 amine (or outer) side, 2 acyl side, 3 side chain; on linkers, the order of the positions; unused ones are H or OH. Square brackets hold non-standard residues; d marks the D form. Side chains are listed from the residue outwards. Ends that are not written are not given here. * marks the point of attachment. C20 diacid = O=C(O)CCCCCCCCCCCCCCCCCCC(=O)*; γGlu = O=C(O)[C@H](CCC(=O)[*:2])N[*:1]; AEEA = NCCOCCOCC(=O)O; Aib = CC(C)(N)C(=O)O

How the values were obtained:
human GIP receptor = molecular target: T1, human GIP receptor (human, UniProt P48546 22-466); experiment: cell-based or functional assay
T1 sequence (looked up): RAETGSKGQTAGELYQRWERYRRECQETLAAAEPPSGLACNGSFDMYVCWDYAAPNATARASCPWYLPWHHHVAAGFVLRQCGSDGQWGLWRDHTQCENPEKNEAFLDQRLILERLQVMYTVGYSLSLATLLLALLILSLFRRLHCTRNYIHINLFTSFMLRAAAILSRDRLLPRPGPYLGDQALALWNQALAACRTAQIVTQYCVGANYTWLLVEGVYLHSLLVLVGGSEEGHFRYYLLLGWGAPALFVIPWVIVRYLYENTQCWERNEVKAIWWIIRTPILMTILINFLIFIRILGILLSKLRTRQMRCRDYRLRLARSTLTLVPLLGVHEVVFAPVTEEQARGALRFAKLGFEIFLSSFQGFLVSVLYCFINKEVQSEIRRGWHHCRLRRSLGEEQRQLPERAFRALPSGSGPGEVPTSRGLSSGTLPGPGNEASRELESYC

human GLP-1 receptor = human GLP-1 receptor (human, UniProt P43220 24-463); experiment: cell-based or functional assay

Binder | hGIPR cAMP EC50 ratio (human GIP receptor) | hGIPR cAMP Rel EC50 (human GIP receptor) [nM] | hGLP1R cAMP EC50 ratio (human GLP-1 receptor) | hGLP1R cAMP Rel EC50 (human GLP-1 receptor) [nM]
Y[Aib]EGTFTSDYSILLDKIAK([AEEA-AEEA-γGlu-C20 diacid])[Aib]AFIEYLIEGGPSSGAPPPS-NH2 (N-terminus assumed; SMILES CC[C@H](C)[C@H](NC(=O)[C@H](CCCCN)NC(=O)[C@H](CC(=O)O)NC(=O)[C@H](CC(C)C)NC(=O)[C@H](CC(C)C)NC(=O)[C@@H](NC(=O)[C@H](CO)NC(=O)[C@H](Cc1ccc(O)cc1)NC(=O)[C@H](CC(=O)O)NC(=O)[C@H](CO)NC(=O)[C@@H](NC(=O)[C@H](Cc1ccccc1)NC(=O)[C@@H](NC(=O)CNC(=O)[C@H](CCC(=O)O)NC(=O)C(C)(C)NC(=O)[C@@H](N)Cc1ccc(O)cc1)[C@@H](C)O)[C@@H](C)O)[C@@H](C)CC)C(=O)N[C@@H](C)C(=O)N[C@@H](CCCCNC(=O)COCCOCCNC(=O)COCCOCCNC(=O)CC[C@H](NC(=O)CCCCCCCCCCCCCCCCCCC(=O)O)C(=O)O)C(=O)NC(C)(C)C(=O)N[C@@H](C)C(=O)N[C@@H](Cc1ccccc1)C(=O)N[C@H](C(=O)N[C@@H](CCC(=O)O)C(=O)N[C@@H](Cc1ccc(O)cc1)C(=O)N[C@@H](CC(C)C)C(=O)N[C@H](C(=O)N[C@@H](CCC(=O)O)C(=O)NCC(=O)NCC(=O)N1CCC[C@H]1C(=O)N[C@@H](CO)C(=O)N[C@@H](CO)C(=O)NCC(=O)N[C@@H](C)C(=O)N1CCC[C@H]1C(=O)N1CCC[C@H]1C(=O)N1CCC[C@H]1C(=O)N[C@@H](CO)C(N)=O)[C@@H](C)CC)[C@@H](C)CC) [Example 31] | 0.456 | 0.388 | 0.0708 | 0.891
Y[Aib]EGTFTSDYSILLDKIK([AEEA-AEEA-γGlu-C20 diacid])Q[Aib]AFIEYLIEGGPSSGAPPPS-NH2 (N-terminus assumed; SMILES CC[C@H](C)[C@H](NC(=O)[C@H](CC(C)C)NC(=O)[C@H](Cc1ccc(O)cc1)NC(=O)[C@H](CCC(=O)O)NC(=O)[C@@H](NC(=O)[C@H](Cc1ccccc1)NC(=O)[C@H](C)NC(=O)C(C)(C)NC(=O)[C@H](CCC(N)=O)NC(=O)[C@H](CCCCNC(=O)COCCOCCNC(=O)COCCOCCNC(=O)CC[C@H](NC(=O)CCCCCCCCCCCCCCCCCCC(=O)O)C(=O)O)NC(=O)[C@@H](NC(=O)[C@H](CCCCN)NC(=O)[C@H](CC(=O)O)NC(=O)[C@H](CC(C)C)NC(=O)[C@H](CC(C)C)NC(=O)[C@@H](NC(=O)[C@H](CO)NC(=O)[C@H](Cc1ccc(O)cc1)NC(=O)[C@H](CC(=O)O)NC(=O)[C@H](CO)NC(=O)[C@@H](NC(=O)[C@H](Cc1ccccc1)NC(=O)[C@@H](NC(=O)CNC(=O)[C@H](CCC(=O)O)NC(=O)C(C)(C)NC(=O)[C@@H](N)Cc1ccc(O)cc1)[C@@H](C)O)[C@@H](C)O)[C@@H](C)CC)[C@@H](C)CC)[C@@H](C)CC)C(=O)N[C@@H](CCC(=O)O)C(=O)NCC(=O)NCC(=O)N1CCC[C@H]1C(=O)N[C@@H](CO)C(=O)N[C@@H](CO)C(=O)NCC(=O)N[C@@H](C)C(=O)N1CCC[C@H]1C(=O)N1CCC[C@H]1C(=O)N1CCC[C@H]1C(=O)N[C@@H](CO)C(N)=O) [Example 30] | 1.5 | 0.114 | 0.0331 | 1.84
Y[Aib]EGTFTSDYSILLDKIAQ[Aib]AFK([AEEA-AEEA-γGlu-C20 diacid])EYLIEGGPSSGAPPPS-NH2 [Example 33] | 0.00222 | 63.3 | 0.000256 | 251
Y[Aib]EGTFTSDYSILLDK([AEEA-AEEA-γGlu-C20 diacid])IAQ[Aib]AFIEYLIEGGPSSGAPPPS-NH2 (N-terminus assumed; SMILES CC[C@H](C)[C@H](NC(=O)[C@H](CCCCNC(=O)COCCOCCNC(=O)COCCOCCNC(=O)CC[C@H](NC(=O)CCCCCCCCCCCCCCCCCCC(=O)O)C(=O)O)NC(=O)[C@H](CC(=O)O)NC(=O)[C@H](CC(C)C)NC(=O)[C@H](CC(C)C)NC(=O)[C@@H](NC(=O)[C@H](CO)NC(=O)[C@H](Cc1ccc(O)cc1)NC(=O)[C@H](CC(=O)O)NC(=O)[C@H](CO)NC(=O)[C@@H](NC(=O)[C@H](Cc1ccccc1)NC(=O)[C@@H](NC(=O)CNC(=O)[C@H](CCC(=O)O)NC(=O)C(C)(C)NC(=O)[C@@H](N)Cc1ccc(O)cc1)[C@@H](C)O)[C@@H](C)O)[C@@H](C)CC)C(=O)N[C@@H](C)C(=O)N[C@@H](CCC(N)=O)C(=O)NC(C)(C)C(=O)N[C@@H](C)C(=O)N[C@@H](Cc1ccccc1)C(=O)N[C@H](C(=O)N[C@@H](CCC(=O)O)C(=O)N[C@@H](Cc1ccc(O)cc1)C(=O)N[C@@H](CC(C)C)C(=O)N[C@H](C(=O)N[C@@H](CCC(=O)O)C(=O)NCC(=O)NCC(=O)N1CCC[C@H]1C(=O)N[C@@H](CO)C(=O)N[C@@H](CO)C(=O)NCC(=O)N[C@@H](C)C(=O)N1CCC[C@H]1C(=O)N1CCC[C@H]1C(=O)N1CCC[C@H]1C(=O)N[C@@H](CO)C(N)=O)[C@@H](C)CC)[C@@H](C)CC) [Example 29] | 0.536 | 0.32 | 0.0671 | 0.999
Y[Aib]EGTFTSDYSILLDKIAQ[Aib]K([AEEA-AEEA-γGlu-C20 diacid])FIEYLIEGGPSSGAPPPS-NH2 (N-terminus assumed; SMILES CC[C@H](C)[C@H](NC(=O)[C@H](CCCCN)NC(=O)[C@H](CC(=O)O)NC(=O)[C@H](CC(C)C)NC(=O)[C@H](CC(C)C)NC(=O)[C@@H](NC(=O)[C@H](CO)NC(=O)[C@H](Cc1ccc(O)cc1)NC(=O)[C@H](CC(=O)O)NC(=O)[C@H](CO)NC(=O)[C@@H](NC(=O)[C@H](Cc1ccccc1)NC(=O)[C@@H](NC(=O)CNC(=O)[C@H](CCC(=O)O)NC(=O)C(C)(C)NC(=O)[C@@H](N)Cc1ccc(O)cc1)[C@@H](C)O)[C@@H](C)O)[C@@H](C)CC)C(=O)N[C@@H](C)C(=O)N[C@@H](CCC(N)=O)C(=O)NC(C)(C)C(=O)N[C@@H](CCCCNC(=O)COCCOCCNC(=O)COCCOCCNC(=O)CC[C@H](NC(=O)CCCCCCCCCCCCCCCCCCC(=O)O)C(=O)O)C(=O)N[C@@H](Cc1ccccc1)C(=O)N[C@H](C(=O)N[C@@H](CCC(=O)O)C(=O)N[C@@H](Cc1ccc(O)cc1)C(=O)N[C@@H](CC(C)C)C(=O)N[C@H](C(=O)N[C@@H](CCC(=O)O)C(=O)NCC(=O)NCC(=O)N1CCC[C@H]1C(=O)N[C@@H](CO)C(=O)N[C@@H](CO)C(=O)NCC(=O)N[C@@H](C)C(=O)N1CCC[C@H]1C(=O)N1CCC[C@H]1C(=O)N1CCC[C@H]1C(=O)N[C@@H](CO)C(N)=O)[C@@H](C)CC)[C@@H](C)CC) [Example 32] | 0.84 | 0.179 | 0.136 | 0.498
Y[Aib]EGTFTSDYSILLDKIAQ[Aib]AFIKYLIEGGPSSGAPPPS-NH2 (not fully specified (residue 24)) [Example 34] | 0.393 | 0.36 | 0.0392 | 1.56
Y[Aib]EGTFTSDYSILLK([AEEA-AEEA-γGlu-C20 diacid])KIAQ[Aib]AFIEYLIEGGPSSGAPPPS-NH2 (N-terminus assumed; SMILES CC[C@H](C)[C@H](NC(=O)[C@H](CCCCN)NC(=O)[C@H](CCCCNC(=O)COCCOCCNC(=O)COCCOCCNC(=O)CC[C@H](NC(=O)CCCCCCCCCCCCCCCCCCC(=O)O)C(=O)O)NC(=O)[C@H](CC(C)C)NC(=O)[C@H](CC(C)C)NC(=O)[C@@H](NC(=O)[C@H](CO)NC(=O)[C@H](Cc1ccc(O)cc1)NC(=O)[C@H](CC(=O)O)NC(=O)[C@H](CO)NC(=O)[C@@H](NC(=O)[C@H](Cc1ccccc1)NC(=O)[C@@H](NC(=O)CNC(=O)[C@H](CCC(=O)O)NC(=O)C(C)(C)NC(=O)[C@@H](N)Cc1ccc(O)cc1)[C@@H](C)O)[C@@H](C)O)[C@@H](C)CC)C(=O)N[C@@H](C)C(=O)N[C@@H](CCC(N)=O)C(=O)NC(C)(C)C(=O)N[C@@H](C)C(=O)N[C@@H](Cc1ccccc1)C(=O)N[C@H](C(=O)N[C@@H](CCC(=O)O)C(=O)N[C@@H](Cc1ccc(O)cc1)C(=O)N[C@@H](CC(C)C)C(=O)N[C@H](C(=O)N[C@@H](CCC(=O)O)C(=O)NCC(=O)NCC(=O)N1CCC[C@H]1C(=O)N[C@@H](CO)C(=O)N[C@@H](CO)C(=O)NCC(=O)N[C@@H](C)C(=O)N1CCC[C@H]1C(=O)N1CCC[C@H]1C(=O)N1CCC[C@H]1C(=O)N[C@@H](CO)C(N)=O)[C@@H](C)CC)[C@@H](C)CC) [Example 28] | 0.106 | 1.66 | 0.00166 | 32.7
